Legend:
human IGF1R [1] = molecular target: T1, human IGF1R (human, UniProt P08069 31-932, limits assumed); experiment: SPR (Biacore T200), hIGF1R immobilised on CM4 chip, analyte injected at 20 nM, 25 C
T1 construct: also called hIGF1R; h-IGF1R
Description: (§1) Surface Plasmon Resonance (SPR) analysis was performed to determine the affinity of the IGF1R3H5-IDS construct towards human IGF1R (hIGR1R). The SPR analysis was performed on a Biacore T200 (GE Healthcare) under the following conditions. hIGF1R was immobilized on a CM4 chip at high density (FC1—ethanoloamine blocked; FC3—2,500 RUs of hIGF1R). A variable concentration of the flowing molecule was used, with contact and dissociations times of 300 and 400 s, respectively. The assay was performed at 25° C. with a flow rate of 40 μL/min and the chip was regenerated in 10 mM glycine (pH 5.5). […] In summary, the IGF1R3H5-IDS construct retains its ability to bind to the target receptor IGF1R.

human IGF1R [2] = molecular target: T1, human IGF1R; experiment: SPR (Biacore T200), hIGF1R immobilised on CM4 chip, analyte injected at 2.5 nM, 25 C
Description: as §1

human IGF1R [3] = molecular target: T1, human IGF1R; experiment: SPR, Biacore T200, hIGF1R immobilised on CM4 chip, analyte at 2.5 nM (FIG. 5C); analyte at 2.5 nM (FIG. 5C)
Description: as §1

human IGF1R [4] = molecular target: T1, human IGF1R; experiment: SPR (Biacore T200), hIGF1R immobilised on CM4 chip, analyte injected at 50 nM, 25 C; text says matrix effects lower the on-rate at this concentration
Description: as §1

human IGF1R [5] = molecular target: T1, human IGF1R; experiment: SPR (Biacore T200), hIGF1R immobilised on CM4 chip, analyte injected at 50 nM, 25 C; text calls the affinity at this concentration inaccurate (matrix effects)
Description: as §1

human IGF1R [6] = molecular target: T1, human IGF1R; experiment: SPR, Biacore T200, hIGF1R immobilised on CM4 chip, analyte at 50 nM (FIG. 5D); the filing calls this value inaccurate because of matrix effects; analyte at 50 nM (FIG. 5D); matrix effects, called inaccurate
Description: as §1

human IGF1R [7] = molecular target: T1, human IGF1R; experiment: SPR, Biacore T200, hIGF1R immobilised on CM4 chip; parental VHH, not the IDS fusion

T1 sequence (P08069 31-932 limits assumed): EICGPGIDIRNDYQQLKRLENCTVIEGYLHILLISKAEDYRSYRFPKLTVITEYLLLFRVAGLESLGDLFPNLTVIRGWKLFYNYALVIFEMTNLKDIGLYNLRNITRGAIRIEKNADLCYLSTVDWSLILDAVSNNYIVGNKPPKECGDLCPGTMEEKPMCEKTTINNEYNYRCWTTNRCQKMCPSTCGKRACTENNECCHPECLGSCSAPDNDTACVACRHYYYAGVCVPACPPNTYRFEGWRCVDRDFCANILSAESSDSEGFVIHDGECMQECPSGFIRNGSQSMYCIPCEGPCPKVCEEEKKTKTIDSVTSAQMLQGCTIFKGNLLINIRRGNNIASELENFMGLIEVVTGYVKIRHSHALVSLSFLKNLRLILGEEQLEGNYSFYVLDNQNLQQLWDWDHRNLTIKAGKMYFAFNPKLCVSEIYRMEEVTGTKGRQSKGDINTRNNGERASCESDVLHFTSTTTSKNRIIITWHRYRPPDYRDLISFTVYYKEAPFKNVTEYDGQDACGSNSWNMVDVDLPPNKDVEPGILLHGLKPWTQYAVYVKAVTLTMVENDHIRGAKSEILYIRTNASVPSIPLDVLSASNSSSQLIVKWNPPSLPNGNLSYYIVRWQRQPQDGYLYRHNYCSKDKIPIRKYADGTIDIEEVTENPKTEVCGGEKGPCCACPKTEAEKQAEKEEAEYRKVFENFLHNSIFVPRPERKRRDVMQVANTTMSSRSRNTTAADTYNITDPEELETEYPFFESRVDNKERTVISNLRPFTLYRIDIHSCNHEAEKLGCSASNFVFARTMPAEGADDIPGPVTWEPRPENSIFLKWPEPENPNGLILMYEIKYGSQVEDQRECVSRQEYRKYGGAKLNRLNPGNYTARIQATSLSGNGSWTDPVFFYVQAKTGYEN

Kd (human IGF1R [1]) [nM] | koff (human IGF1R [1]) [s⁻¹] | kon (human IGF1R [1]) [M⁻¹ s⁻¹] | Kd (human IGF1R [2]) [nM] | koff (human IGF1R [2]) [s⁻¹] | kon (human IGF1R [2]) [M⁻¹ s⁻¹] | Kd (human IGF1R [3]) [nM] | koff (human IGF1R [4]) [s⁻¹] | kon (human IGF1R [4]) [M⁻¹ s⁻¹] | Kd (human IGF1R [5]) [nM] | Kd (human IGF1R [6]) [nM] | Kd (human IGF1R [7]) [nM] | koff (human IGF1R [7]) [s⁻¹] | kon (human IGF1R [7]) [M⁻¹ s⁻¹] | Binder
40.2 | 0.00289 | 71900 | – | – | – | – | – | – | – | – | – | – | – | IGF1R3H5-IDS (uncapped) (other, phosphorylated N-glycans; Man-6-P uncapped by Jack Bean alpha-mannosidase (JBMan) treatment, Single-chain fusion of a VHH with an enzyme, made in Yarrowia lipolytica; the two differ only in N-glycan uncapping; also called uncapped IGF1R3H5-IDS; P454) EVQLVESGGGLVQPGGSLRLSCAASEYPSNFYAMSWFRQAPGKEREFVSGVSRDGLTTLYADSVKGRFTISRDNSKNTLYLQMNSLRAEDTAVYYCAIVITGVWNKVDVNSRSYHYWGQGTLVTVSSGGGGSGGGGSGGGGSGGGGSGGGGSSETQANSTTDALNVLLIIVDDLRPSLGCYGDKLVRSPNIDQLASHSLLFQNAFAQQAVCAPSRVSFLTGRRPDTTRLYDFNSYWRVHAGNFSTIPQYFKENGYVTMSVGKVFHPGISSNHTDDSPYSWSFPPYHPSSEKYENTKTCRGPDGELHANLLCPVDVLDVPEGTLPDKQSTEQAIQLLEKMKTSASPFFLAVGYHKPHIPFRYPKEFQKLYPLENITLAPDPEVPDGLPPVAYNPWMDIRQREDVQALNISVPYGPIPVDFQRKIRQSYFASVSYLDTQVGRLLSALDDLQLANSTIIAFTSDHGWALGEHGEWAKYSNFDVATHVPLIFYVPGRTASLPEAGEKLFPYLDPFDSASQLMEPGRQSMDLVELVSLFPTLAGLAGLQVPPRCPVPSFHVELCREGKNLLKHFRFRDLEEDPYLPGNPRELIAYSQYPRPSDIPQWNSDKPSLKDIKIMGYSIRTIDYRYTVWVGFNPDEFLANFSDIHAGELYFVDSDPLQDHNMYNDSQGGDLFQLLMPHHHHHHHHWSHPQFEK
46.1 | 0.00295 | 64000 | 7.42 | 0.00288 | 388000 | ~7 | 0.0029 | 42000 | 69.8 | ~70 | – | – | – | IGF1R3H5-IDS (capped) (other, phosphorylated N-glycans; Man-6-P still capped (no uncapping), also called capped IGF1R3H5-IDS) EVQLVESGGGLVQPGGSLRLSCAASEYPSNFYAMSWFRQAPGKEREFVSGVSRDGLTTLYADSVKGRFTISRDNSKNTLYLQMNSLRAEDTAVYYCAIVITGVWNKVDVNSRSYHYWGQGTLVTVSSGGGGSGGGGSGGGGSGGGGSGGGGSSETQANSTTDALNVLLIIVDDLRPSLGCYGDKLVRSPNIDQLASHSLLFQNAFAQQAVCAPSRVSFLTGRRPDTTRLYDFNSYWRVHAGNFSTIPQYFKENGYVTMSVGKVFHPGISSNHTDDSPYSWSFPPYHPSSEKYENTKTCRGPDGELHANLLCPVDVLDVPEGTLPDKQSTEQAIQLLEKMKTSASPFFLAVGYHKPHIPFRYPKEFQKLYPLENITLAPDPEVPDGLPPVAYNPWMDIRQREDVQALNISVPYGPIPVDFQRKIRQSYFASVSYLDTQVGRLLSALDDLQLANSTIIAFTSDHGWALGEHGEWAKYSNFDVATHVPLIFYVPGRTASLPEAGEKLFPYLDPFDSASQLMEPGRQSMDLVELVSLFPTLAGLAGLQVPPRCPVPSFHVELCREGKNLLKHFRFRDLEEDPYLPGNPRELIAYSQYPRPSDIPQWNSDKPSLKDIKIMGYSIRTIDYRYTVWVGFNPDEFLANFSDIHAGELYFVDSDPLQDHNMYNDSQGGDLFQLLMPHHHHHHHHWSHPQFEK
– | – | – | – | – | – | – | – | – | – | – | 7.5 | 0.00251 | 334000 | IGF1R3H5 VHH (VHH, also called parental VHH IGF1R3H5) VHH: EVQLVESGGGLVQPGGSLRLSCAASEYPSNFYAMSWFRQAPGKEREFVSGVSRDGLTTLYADSVKGRFTISRDNSKNTLYLQMNSLRAEDTAVYYCAIVITGVWNKVDVNSRSYHYWGQGTLVTVSS

From US20210253715A1 (NATIONAL RESEARCH COUNCIL OF CANADA, published 2021)
